Reference: doi:10.1101/2022.02.02.478874 (bioRxiv, 2022)
“And” between values parts separate entries of the source, which are not always exact repeats. Identical values can stand only once. Like-named read-outs stand apart in the source and are kept apart here.

Key:
mass photometry = target: the molecule itself; assay: mass photometry
[1] = target: the molecule itself
Spindly^250-605 = target: T1, Spindly^250-605 (human, UniProt Q96EA4 250-605); assay: SEC
T1 sequence: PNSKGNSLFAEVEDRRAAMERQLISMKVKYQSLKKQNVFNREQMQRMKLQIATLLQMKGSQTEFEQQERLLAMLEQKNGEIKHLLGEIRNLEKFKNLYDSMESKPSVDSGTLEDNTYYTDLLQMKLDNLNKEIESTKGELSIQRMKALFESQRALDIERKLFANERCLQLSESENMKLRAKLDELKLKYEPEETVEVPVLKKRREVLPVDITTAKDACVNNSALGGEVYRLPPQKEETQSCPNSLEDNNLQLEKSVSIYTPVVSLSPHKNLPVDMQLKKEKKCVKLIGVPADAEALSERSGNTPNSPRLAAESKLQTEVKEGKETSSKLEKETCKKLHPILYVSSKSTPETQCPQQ

[2] = target: T2, mCherry-tagged full-length Spindly (^mChSpindly^FL) (human), Q96EA4; assay: mass photometry; conditions: remark: other sources report otherwise
T2 chain: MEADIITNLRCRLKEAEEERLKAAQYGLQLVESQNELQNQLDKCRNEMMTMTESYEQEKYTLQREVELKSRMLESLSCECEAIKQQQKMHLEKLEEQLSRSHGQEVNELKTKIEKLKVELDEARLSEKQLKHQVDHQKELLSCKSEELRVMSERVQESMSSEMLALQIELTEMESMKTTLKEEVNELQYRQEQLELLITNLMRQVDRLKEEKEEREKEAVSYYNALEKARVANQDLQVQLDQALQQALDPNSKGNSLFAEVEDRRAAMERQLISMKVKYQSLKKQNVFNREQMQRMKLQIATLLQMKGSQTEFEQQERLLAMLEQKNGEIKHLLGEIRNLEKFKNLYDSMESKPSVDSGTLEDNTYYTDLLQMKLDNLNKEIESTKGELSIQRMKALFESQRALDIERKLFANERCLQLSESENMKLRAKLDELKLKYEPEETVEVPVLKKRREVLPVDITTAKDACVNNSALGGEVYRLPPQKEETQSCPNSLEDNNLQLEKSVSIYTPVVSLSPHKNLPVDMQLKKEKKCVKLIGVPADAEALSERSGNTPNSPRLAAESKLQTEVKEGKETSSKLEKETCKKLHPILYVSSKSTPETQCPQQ

crystal structure = target: the molecule itself; assay: crystal structure

B1: ^mChSpindly^ΔRV (natural protein)
chain: MEADIITNLRCRLKEAEEERLKAAQYGLQLVESQNELQNQLDKCRNEMMTMTESYEQEKYTLQREVELKSRMLESLSCECEAIKQQQKMHLEKLEEQLSRSHGQEVNELKTKIEKLKVELDEARLSEKQLKHQVDHQKELLSCKSEELRVMSEQESMSSEMLALQIELTEMESMKTTLKEEVNELQYRQEQLELLITNLMRQVDRLKEEKEEREKEAVSYYNALEKARVANQDLQVQLDQALQQALDPNSKGNSLFAEVEDRRAAMERQLISMKVKYQSLKKQNVFNREQMQRMKLQIATLLQMKGSQTEFEQQERLLAMLEQKNGEIKHLLGEIRNLEKFKNLYDSMESKPSVDSGTLEDNTYYTDLLQMKLDNLNKEIESTKGELSIQRMKALFESQRALDIERKLFANERCLQLSESENMKLRAKLDELKLKYEPEETVEVPVLKKRREVLPVDITTAKDACVNNSALGGEVYRLPPQKEETQSCPNSLEDNNLQLEKSVSIYTPVVSLSPHKNLPVDMQLKKEKKCVKLIGVPADAEALSERSGNTPNSPRLAAESKLQTEVKEGKETSSKLEKETCKKLHPILYVSSKSTPETQCPQQ
Which “stoichiometry N” value (mass photometry) does the source give for B1 here?
Its value is 2.

B2: Spindly^1-275 (domain or fragment)
chain: MEADIITNLRCRLKEAEEERLKAAQYGLQLVESQNELQNQLDKCRNEMMTMTESYEQEKYTLQREVELKSRMLESLSCECEAIKQQQKMHLEKLEEQLSRSHGQEVNELKTKIEKLKVELDEARLSEKQLKHQVDHQKELLSCKSEELRVMSERVQESMSSEMLALQIELTEMESMKTTLKEEVNELQYRQEQLELLITNLMRQVDRLKEEKEEREKEAVSYYNALEKARVANQDLQVQLDQALQQALDPNSKGNSLFAEVEDRRAAMERQLISM
For B2, which “stoichiometry N” value [1] is on record?
The value was 2 and 4.

B3: Spindly^1-250 (domain or fragment)
chain: MEADIITNLRCRLKEAEEERLKAAQYGLQLVESQNELQNQLDKCRNEMMTMTESYEQEKYTLQREVELKSRMLESLSCECEAIKQQQKMHLEKLEEQLSRSHGQEVNELKTKIEKLKVELDEARLSEKQLKHQVDHQKELLSCKSEELRVMSERVQESMSSEMLALQIELTEMESMKTTLKEEVNELQYRQEQLELLITNLMRQVDRLKEEKEEREKEAVSYYNALEKARVANQDLQVQLDQALQQALDP
Does B3 bind (Spindly^250-605)?
Result: binds

B4: ^mChSpindly^Δ276-306 (natural protein)
chain: MEADIITNLRCRLKEAEEERLKAAQYGLQLVESQNELQNQLDKCRNEMMTMTESYEQEKYTLQREVELKSRMLESLSCECEAIKQQQKMHLEKLEEQLSRSHGQEVNELKTKIEKLKVELDEARLSEKQLKHQVDHQKELLSCKSEELRVMSERVQESMSSEMLALQIELTEMESMKTTLKEEVNELQYRQEQLELLITNLMRQVDRLKEEKEEREKEAVSYYNALEKARVANQDLQVQLDQALQQALDPNSKGNSLFAEVEDRRAAMERQLISMKGSQTEFEQQERLLAMLEQKNGEIKHLLGEIRNLEKFKNLYDSMESKPSVDSGTLEDNTYYTDLLQMKLDNLNKEIESTKGELSIQRMKALFESQRALDIERKLFANERCLQLSESENMKLRAKLDELKLKYEPEETVEVPVLKKRREVLPVDITTAKDACVNNSALGGEVYRLPPQKEETQSCPNSLEDNNLQLEKSVSIYTPVVSLSPHKNLPVDMQLKKEKKCVKLIGVPADAEALSERSGNTPNSPRLAAESKLQTEVKEGKETSSKLEKETCKKLHPILYVSSKSTPETQCPQQ
How did the “stoichiometry N” value [1] turn out when B4 was run?
The value was 2 and 4.

B5: mCherry-tagged full-length Spindly (^mChSpindly^FL), Q96EA4 1-605 (natural protein)
chain: T2 chain
B5 was tested. Which stoichiometry N [2] did it give?
The stoichiometry N was 2.

B6: ^mChSpindly^76-605 (domain or fragment)
chain: LSCECEAIKQQQKMHLEKLEEQLSRSHGQEVNELKTKIEKLKVELDEARLSEKQLKHQVDHQKELLSCKSEELRVMSERVQESMSSEMLALQIELTEMESMKTTLKEEVNELQYRQEQLELLITNLMRQVDRLKEEKEEREKEAVSYYNALEKARVANQDLQVQLDQALQQALDPNSKGNSLFAEVEDRRAAMERQLISMKVKYQSLKKQNVFNREQMQRMKLQIATLLQMKGSQTEFEQQERLLAMLEQKNGEIKHLLGEIRNLEKFKNLYDSMESKPSVDSGTLEDNTYYTDLLQMKLDNLNKEIESTKGELSIQRMKALFESQRALDIERKLFANERCLQLSESENMKLRAKLDELKLKYEPEETVEVPVLKKRREVLPVDITTAKDACVNNSALGGEVYRLPPQKEETQSCPNSLEDNNLQLEKSVSIYTPVVSLSPHKNLPVDMQLKKEKKCVKLIGVPADAEALSERSGNTPNSPRLAAESKLQTEVKEGKETSSKLEKETCKKLHPILYVSSKSTPETQCPQQ
B6 was tested. Which “stoichiometry N” value (mass photometry) did it give?
Its value is 2.

B7: Spindly^1-100 (domain or fragment)
chain: MEADIITNLRCRLKEAEEERLKAAQYGLQLVESQNELQNQLDKCRNEMMTMTESYEQEKYTLQREVELKSRMLESLSCECEAIKQQQKMHLEKLEEQLSR
B7 was tested. Which “stoichiometry N” value (crystal structure) did it give?
Its value is 2.
